Laboratory results as given in paper PMC3861084 (Molecular Biology of the Cell, 2013).

Target: T1, pY14–Cav-1–mRFP (Cav-1–monomeric red fluorescent protein phosphorylated at Tyr-14) (canine, UniProt P33724 1-178, phosphotyrosine at 14)
T1 sequence (looked up): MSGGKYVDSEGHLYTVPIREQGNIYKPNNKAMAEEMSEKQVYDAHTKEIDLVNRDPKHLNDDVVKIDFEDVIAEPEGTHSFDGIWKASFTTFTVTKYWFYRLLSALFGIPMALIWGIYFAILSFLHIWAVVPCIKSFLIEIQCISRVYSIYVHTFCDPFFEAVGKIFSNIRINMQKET
Assay: far-Western

B1: GST fused to the Src SH2 domain (domain or fragment, chicken, UniProt P00523 148-251, looked up)
chain: WYFGKITRRESERLLLNPENPRGTFLVRESETTKGAYCLSVSDFDNAKGLNVKHYKIRKLDSGGFYITSRTQFSSLQQLVAYYSKHADGLCHRLTNVCPTSKPQ
- binding result: binds
